Assay results reported in patent publication US12454572B2, “Methods of treating anemia in myelodysplastic syndromes” (Dana-Farber Cancer Institute, Inc., priority 2021, dated 2025).
Entries after “also recorded” stand apart in the source; their conditions may differ. Read-outs that look alike come from different tables or passages of the source.

Legend:
[1] = test system: human CD34+ stem cells; settings: cited from earlier work
[2] = test system: MDS patients; settings: cited from earlier work
[3] = test system: wild-type TH22 cells; test: secreted IL-22 from in vitro polarized wild-type TH22 cells; type: cell-based, mouse; settings: for secreted IL-22: pifithrin-α, p-nitro 1 μM, Nutlin-3 100 nM
Experimental: Single-cell suspensions of mouse spleens were prepared by pressing tissue through a 70-μm cell strainer followed by red blood cell lysis using PharmLyse. Total splenic CD4^+ T cells were isolated using CD4 T cell isolation kit (Miltenyi Biotec). Enriched CD4^+ T cells were then incubated with fluorochrome-conjugated antibodies to CD4, CD8, CD25, CD62L, and CD44 to purify naïve CD4^+ T cells using fluorescence activated cell sorting (FACS). In the presence of 1 μg/mL plate-bound anti-CD3ε and soluble 1 μg/mL anti-CD28, T cell polarizations were carried out in IMDM supplemented with 10% FBS, 2 mM L-glutamine, […] penicillin-streptomycin, HEPES (pH 7.2-7.6), non-essential amino acids, 100 μM β-mercaptoethanol (BME), and sodium pyruvate as follows—TH1 (20 ng/mL IL-12, 10 μg/mL anti-IL-4), TH2 (20 ng/mL IL-4, 10 μg/mL anti-IFN-γ), TH17 (30 ng/mL IL-6, 20 ng/mL IL-23, 20 ng/mL IL-1β, 10 μg/mL anti-IL-4, 10 μg/mL anti-IFN-γ), Treg cells (1 ng/mL TGF-β, 10 μg/mL anti-IL-4, 10 μg/mL anti-IFN-γ), and TH22 (30 ng/mL IL-6, 20 ng/mL IL-23, 20 ng/mL IL-1β, 10 μg/mL anti-IL-4, 10 μg/mL anti-IFN-γ, 400 nM FICZ). Pifithrin-α, p-Nitro and Nutlin-3a were purchased from Santa Cruz Biotechnology and Tocris Biosciences, respectively.
IL-22 in human samples was quantified using either Human IL-22 Quantikine ELISA Kit (D2200, R&D Systems) or SMCTM Human IL-22 High Sensitivity Immunoassay Kit (EMD Millipore, 03-0162-00) according to manufacturers' instructions. The SMC assay was read on a SMC Pro (EMD Millipore) instrument. The lower limit of quantification (LLOQ) of this immunoassay is 0.1 pg/mL. IL-22 in mouse samples was quantified using ELISA MAX™ Deluxe Set Mouse IL-22 (BioLegend, 436304). The LLOQ of this immunoassay is 3.9 pg/mL. S100A8 in human samples was quantified using Human S100A8 DuoSet ELISA (DY4570, R&D Systems).

[4] = test system: Lin- BM cells; test: in vitro erythropoiesis assay (erythroid differentiation of Lin- BM cells); type: cell-based, mouse; settings: for p53 expression: culture treated with rIL-22 vs PBS
Experimental: Whole BM cells were labeled with biotin-conjugated lineage antibodies (cocktail of anti-CD3ε, anti-CD11b, anti-CD45R/B220, anti-Gr1, anti-CD5, and anti-TER-119) (BD Pharmingen) and purified using anti-biotin beads and negative selection on the AutoMACS Pro (Miltenyi). Purified cells were then seeded in fibronectin-coated (2 μg/cm^2) tissue-culture treated polystyrene wells (CORNING® BIOCOAT™ Cellware) at a cell density of 10^5/mL. Erythroid differentiation was carried out according to modified published protocols. The erythropoietic medium was IMDM supplemented with erythropoietin at 10 U/mL, 10 ng/mL stem cell factor SCF, PeproTech), 10 μM Dexamethasone (Sigma-Aldrich), 15% FBS, 1% detoxified BSA (StemCell Technologies), 200 μg/mL holotransferrin (Sigma-Aldrich), […] human insulin (Sigma-Aldrich), 2 mM L-glutamine, 0.1 mM β-mercaptoethanol, and penicillin-streptomycin. After 48 h, the medium was replaced by IMDM medium containing 20% FBS, 2 mM L-glutamine, 0.1 mM β-mercaptoethanol, and penicillin-streptomycin. 50% of the culture media was replaced after 48 h and cell density was maintained at 0.5×10^6/mL. Total culture period for the assay was 6 days. Recombinant mouse IL-22 (PeproTech/Cell Signaling) was used where indicated.

[5] = target: T1, IL-22 (Mus musculus, UniProt Q9JJY9); settings: cited from earlier work
T1 sequence (Q9JJY9 34-179): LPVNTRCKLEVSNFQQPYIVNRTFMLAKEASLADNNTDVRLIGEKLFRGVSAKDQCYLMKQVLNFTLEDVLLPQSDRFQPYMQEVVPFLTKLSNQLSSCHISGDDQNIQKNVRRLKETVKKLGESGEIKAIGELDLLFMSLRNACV

[6] = target: T1, IL-22; test: IL-22 neutralization with anti-IL-22 antibody in mice undergoing PhZ-induced stress erythropoiesis; type: in vivo; set-up: endogenous in cells; host or cells: living mice (wt C57BL/6J; Riok2f/+Vav1cre and Riok2+/+Vav1cre); settings: for frequency of apoptotic erythroid progenitors/precursors: viable BM cells
Experimental: (§1) Phenylhydrazine (PhZ) was purchased from Sigma and injected intraperitoneally on 2 consecutive days (days 0 and 1) at a dose of 25 mg/kg. Peripheral blood was collected 3-4 days before the start of treatment and at day 4, 7 and 11. PhZ treatment experiments were carried out in 8-16 week-old mice.
(§2) Monoclonal anti-IL-22 (Clone IL22JOP) blocking antibody and isotype control IgG2a (Clone eBR2a) were purchased from Thermo Fisher Scientific. Mice were administered anti-IL-22 (50 μg/mouse) or isotype intraperitoneally every 48 h until the conclusion of the experiment. For recombinant IL-22 treatment, mice were injected with recombinant IL-22 (500 ng/mouse; PeproTech) intraperitoneally every 24 h until the conclusion of the experiment.
(§3) Mice were bled via the submandibular facial vein to collect blood in EDTA-coated tubes (BD MICROTAINER™ Capillary Blood Collector, BD 365974). Complete blood counts were obtained using the HemaVet CBC Analyzer (Drew Scientific) or Advia 120 (Siemens Inc.,) instruments.
as §1, with “at the” for “at a”, “25 mg/kg (sublethal model) or 35 mg/kg (lethal model).” for “25 mg/kg.”, “4, 7,” for “4, 7”, “in 8-12 week old” for “in 8-16 week-old”
(§4) Monoclonal anti-IL-22 (Clone IL22JOP) blocking antibody and isotype control IgG2aκ (Clone eBR2a) were purchased from Thermo Fisher Scientific. Mice were administered anti-IL-22 (50 μg/mouse) or isotype intraperitoneally every 48 h until the conclusion of the experiment. For recombinant IL-22 treatment, mice were injected with recombinant IL-22 (500 ng/mouse; PeproTech) intraperitoneally every 24 h until the conclusion of the experiment. Mice were administered these reagents at least five times before inducing PhZ-mediated anemia.

[7] = target: T1, IL-22; test: anti-IL-22 antibody in naive, non-anemic wt C57BL/6J mice; type: in vivo; set-up: endogenous in cells; host or cells: living mice (wt C57BL/6J; Riok2f/+Vav1cre and Riok2+/+Vav1cre); settings: healthy, anti-IL-22 vs isotype
Experimental: as §2, §3, §4

[8] = test system: wild-type C57BL/6J mice; test: recombinant IL-22 administration to wt C57BL/6J mice subsequently treated with PhZ; type: in vivo, mouse; settings: for apoptosis of erythroid progenitors/precursors: in vivo
Experimental: as §1, §2, §3
as §1, with “at the” for “at a”, “25 mg/kg (sublethal model) or 35 mg/kg (lethal model).” for “25 mg/kg.”, “4, 7,” for “4, 7”, “in 8-12 week old” for “in 8-16 week-old”
as §4

[9] = test system: Il22ra1f/fEporcre mice; test: recombinant IL-22 administration to Il22ra1f/fEporcre mice subsequently treated with PhZ; type: in vivo, mouse; settings: mice lacking the IL-22 receptor only on erythroid cells
Experimental: as §1, with “at the” for “at a”, “25 mg/kg (sublethal model) or 35 mg/kg (lethal model).” for “25 mg/kg.”, “4, 7,” for “4, 7”, “in 8-12 week old” for “in 8-16 week-old”
as §4

[10] = Riok2 sufficient (Riok2+/+Vav1cre) mice, PhZ-induced anemia, vs isotype
[11] = wt C57BL/6J mice undergoing PhZ-induced anemia, vs isotype

Molecule: CC(C)n1cnc2c(NCCc3ccc(O)cc3)nc(-c3csc4ccccc34)nc21 [Stemregenin 1]
- increase in erythroid colonies ([1]; SR1-pretreated CD34+ cells vs untreated cells): 129 fold
- pluripotency of human CD34+ stem cells [1]: maintain
- ex vivo expansion of human HSCs ([1]; highest fold expansion seen in the erythroid lineage): promote

Molecule: Nc1cccc2c1CN(C1CCC(=O)NC1=O)C2=O (centres unmarked) [lenalidomide]
- extension of survival ([2]; HR-MDS group): 4-6 months
- extension of survival ([2]; LR-MDS patients): 14-17 months

Molecule: COc1ccc(C2=N[C@@H](c3ccc(Cl)cc3)[C@@H](c3ccc(Cl)cc3)N2C(=O)N2CCNC(=O)C2)c(OC(C)C)c1 [nutlin-3]
- cell viability [3]: did not decrease
- secreted IL-22 [3]: increased

Molecule: N=c1sc2c(n1CC(=O)c1ccc([N+](=O)[O-])cc1)CCCC2 [pifithrin-α, p-nitro]
- apoptosis induced by Riok2 haploinsufficiency ([4]; IL-22-free assay, pifithrin-α, p-nitro 1 μM, Lin- BM cells from Riok2f/+Vav1cre mice): inhibited
- secreted IL-22 [3]: decreased
- cell viability ([3]; viable cells by flow cytometry): did not decrease

Molecule: anti-IL-22 (Clone IL22JOP): Monoclonal anti-IL-22 blocking antibody purchased from Thermo Fisher Scientific; used in Examples 2-16
- neutralization of IL-22 [5]: effectively neutralize
- PB RBCs ([6]; Riok2f/+Vav1cre mice, PhZ-induced anemia, anti-IL-22 50 μg/mouse i.p. every 48 h vs isotype): anti-anemic effect; also recorded: increase
- HCT ([6]; Riok2f/+Vav1cre mice, PhZ-induced anemia, vs isotype): anti-anemic effect; also recorded: increase
- frequency of apoptotic erythroid progenitors/precursors ([6]; Riok2f/+Vav1cre mice, PhZ): reduced
- anemia ([6]; Riok2 haploinsufficient (Riok2f/+Vav1cre) mice, vs isotype): partially reversed; also recorded: alleviated
- phenylhydrazine-induced anemia ([6]; Riok2 sufficient (Riok2+/+Vav1cre) mice): reversed
- HCT [6, 10]: anti-anemic effect; also recorded: increase
- PB RBCs [6, 10]: anti-anemic effect; also recorded: increase
- frequency of apoptotic erythroid progenitors/precursors ([6]; Riok2 sufficient mice, PhZ): reduced
- anemia ([6]; wild-type mice undergoing PhZ-induced stress erythropoiesis): alleviated
- HCT [6, 11]: significantly increased
- Hb [6, 11]: significantly increased
- PB RBCs [6, 11]: increases; also recorded: significantly increased; also recorded: faster
- frequency of RIII and RIV erythroid precursors in the BM ([6]; wt C57BL/6J mice, PhZ, vs isotype): increased
- HCT [7]: did not differ
- Hb [7]: did not differ
- PB RBCs [7]: did not differ

Molecule: etanercept
- efficacy in MDS patients ([2]; human, in vivo): ineffective

B1: rIL-22: recombinant IL-22 (PeproTech / Cell Signaling) (protein, UniProt Q9JJY9 34-179, looked up)
Interleukin-22: T1 sequence (Q9JJY9 34-179)
- BM erythroid progenitor/precursor cells (frequency and number) ([8]; 7 days after PhZ, vs PBS): decreased
- PB RBCs ([8]; rIL-22 500 ng/mouse i.p. every 24 h, then PhZ, vs PBS): decreased
- BM reticulocytes ([8]; rIL-22 i.p., PhZ): increase
- PB reticulocytes ([8]; rIL-22 i.p., PhZ): increase
- apoptosis of erythroid progenitors/precursors ([8]; rIL-22 i.p., PhZ): increased; also recorded: induced
- apoptosis of erythroid progenitors/precursors ([8]; rIL-22 i.p., PhZ, listed as recombinant IL-22): increase
- HCT ([8]; rIL-22 i.p., then PhZ, vs PBS): decreased
- Hb ([8]; rIL-22 i.p., then PhZ, vs PBS): decreased
- PhZ-induced (stress-induced) anemia ([8]; wt mice): exacerbates
- phenylhydrazine-induced anemia [9]: failed to exacerbate
- p53 expression [4]: upregulation
- p53 expression ([4]; listed as recombinant IL-22): induction
- terminal erythropoiesis ([4]; recombinant IL-22, dose response): dose-dependently decreased
